Test [1] has as its target T1, KRAS G12D mutant peptide presented by HLA-A*11:01 on cells (human). The test can be described thus: cell-based or functional assay.
Test [2] has as its target T1, KRAS G12D mutant peptide presented by …. As to the kind of experiment: cell-based or functional assay. This is another data set of the same source.

Where two headings read alike, the source gives them in different places.

B1: TCR4 (TCR)
TCR alpha: QKEVEQDPGPLSVPEGAIVSLNCTYSNSAFQYFMWYRQYSRKGPELLMYTYSSGNKEDGRFTAQVDKSSKYISLFIRDSQPSDSATYLCAMGALNSGAGSYQLTFGKGTKLSVIPNIQNPDPAVYQLRDSKSSDKSVCLFTDFDSQTNVSQSKDSDVYITDKCVLDMRSMDFKSNSAVAWSNKSDFACANAFNNSIIPEDTFFPSPESSCDVKLVEKSFETDTNLNFQNLSVIGFRILLLKVAGFNLLMTLRLWSS
TCR beta: KAGVTQTPRYLIKTRGQQVTLSCSPISGHRSVSWYQQTPGQGLQFLFEYFSETQRNKGNFPGRFSGRQFSNSRSEMNVSTLELGDSALYLCASSLSSGTGTEAFFGQGTRLTVEDLKNVFPPEVAVFEPSEAEISHTQKATLVCLATGFYPDHVELSWWVNGKEVHSGVCTDPQPLKEQPALNDSRYCLSSRLRVSATFWQNPRNHFRCQVQFYGLSENDEWTQDRAKPVTQIVSAEAWGRADCGFTSESYQQGVLSATILYEILLGKATLYAVLVSALVLMAMVKRKDSRG
For the molecule B1, in test [1], the T cell activation EC50 (CD137 vs G12D peptide dose), TRAC/TRBC double knockout T cells is 4.4 nM and the T cell activation EC50 (CD137 vs G12D peptide dose), WT TRAC/TRBC T cells amounted to 31.1 nM. Also, in test [2], the Cmax (%) of CD137 T cell activation by G12D peptide, without knockout of TRAC and TRBC was determined as 16%; the T cell activation EC50 (CD137 vs G12D peptide dose), TRAC/TRBC double knockout T cells turned out to be 11.8 nM; the T cell activation EC50 (CD137 vs G12D peptide dose), WT TRAC/TRBC T cells is 49.8 nM.

B2: TCR5 (TCR)
TCR alpha: RGEDVEQSLFLSVREGDSSVINCTYTDSSSTYLYWYKQEPGAGLQLLTYIFSNMDMKQDQRLTVLLNKKDKHLSLRIADTQTGDSAIYFCAERDAGNNRKLIWGLGTSLAVNPNIQNPDPAVYQLRDSKSSDKSVCLFTDFDSQTNVSQSKDSDVYITDKCVLDMRSMDFKSNSAVAWSNKSDFACANAFNNSIIPEDTFFPSPESSCDVKLVEKSFETDTNLNFQNLSVIGFRILLLKVAGFNLLMTLRLWSS
TCR beta: GAGVSQSPRYKVAKRGQDVALRCDPISGHVSLFWYQQALGQGPEFLTYFQNEAQLDKSGLPSDRFFAERPEGSVSTLKIQRTQQEDSAVYLCASSLEGGDTQYFGPGTRLTVLEDLKNVFPPEVAVFEPSEAEISHTQKATLVCLATGFYPDHVELSWWVNGKEVHSGVCTDPQPLKEQPALNDSRYCLSSRLRVSATFWQNPRNHFRCQVQFYGLSENDEWTQDRAKPVTQIVSAEAWGRADCGFTSESYQQGVLSATILYEILLGKATLYAVLVSALVLMAMVKRKDSRG
For B2, in test [1], the T cell activation EC50 (CD137 vs G12D peptide dose), TRAC/TRBC double knockout T cells amounted to 9.4 nM and the T cell activation EC50 (CD137 vs G12D peptide dose), WT TRAC/TRBC T cells came to 37.8 nM. In test [2], this molecule had a Cmax (%) of CD137 T cell activation by G12D peptide, without knockout of TRAC and TRBC of 23.9%; a T cell activation EC50 (CD137 vs G12D peptide dose), TRAC/TRBC double knockout T cells of 7.6 nM; a T cell activation EC50 (CD137 vs G12D peptide dose), WT TRAC/TRBC T cells of 36.3 nM.

B3: TCR91 (TCR)
TCR alpha: AQKVTQAQTEISVVEKEDVTLDCVYETRDTTYYLFWYKQPPSGELVFLIRRNSFDEQNEISGRYSWNFQKSTSSFNFTITASQVVDSAVYFCALNEGGGSTLGRLYFGRGTQLTVWPDIQNPDPAVYQLRDSKSSDKSVCLFTDFDSQTNVSQSKDSDVYITDKCVLDMRSMDFKSNSAVAWSNKSDFACANAFNNSIIPEDTFFPSPESSCDVKLVEKSFETDTNLNFQNLSVIGFRILLLKVAGFNLLMTLRLWSS
TCR beta: MGPGLLHWMALCLLGTGHGDAMVIQNPRYQVTQFGKPVTLSCSQTLNHNVMYWYQQKSSQAPKLLFHYYDKDFNNEADTPDNFQSRRPNTSFCFLDIRSPGLGDAAMYLCATSTGRVYQPQHFGDGTRLSILEDLNKVFPPEVAVFEPSEAEISHTQKATLVCLATGFFPDHVELSWWVNGKEVHSGVCTDPQPLKEQPALNDSRYCLSSRLRVSATFWQNPRNHFRCQVQFYGLSENDEWTQDRAKPVTQIVSAEAWGRADCGFTSVSYQQGVLSATILYEILLGKATLYAVLVSALVLMAMVKRKDFGGSG
In test [1], B3 displayed a T cell activation EC50 (CD137 vs G12D peptide dose), TRAC/TRBC double knockout T cells of 14.4 nM and a T cell activation EC50 (CD137 vs G12D peptide dose), WT TRAC/TRBC T cells of 179 nM. In test [2], this molecule showed a Cmax (%) of CD137 T cell activation by G12D peptide, without knockout of TRAC and TRBC of 14.4%; a T cell activation EC50 (CD137 vs G12D peptide dose), TRAC/TRBC double knockout T cells of 36.5 nM; a T cell activation EC50 (CD137 vs G12D peptide dose), WT TRAC/TRBC T cells of 131 nM.

(Values after US20260027208A1 (published 2026).)
